For this series, the target named is T1, CasEnd-1 (synthetic construct).
T1 chain: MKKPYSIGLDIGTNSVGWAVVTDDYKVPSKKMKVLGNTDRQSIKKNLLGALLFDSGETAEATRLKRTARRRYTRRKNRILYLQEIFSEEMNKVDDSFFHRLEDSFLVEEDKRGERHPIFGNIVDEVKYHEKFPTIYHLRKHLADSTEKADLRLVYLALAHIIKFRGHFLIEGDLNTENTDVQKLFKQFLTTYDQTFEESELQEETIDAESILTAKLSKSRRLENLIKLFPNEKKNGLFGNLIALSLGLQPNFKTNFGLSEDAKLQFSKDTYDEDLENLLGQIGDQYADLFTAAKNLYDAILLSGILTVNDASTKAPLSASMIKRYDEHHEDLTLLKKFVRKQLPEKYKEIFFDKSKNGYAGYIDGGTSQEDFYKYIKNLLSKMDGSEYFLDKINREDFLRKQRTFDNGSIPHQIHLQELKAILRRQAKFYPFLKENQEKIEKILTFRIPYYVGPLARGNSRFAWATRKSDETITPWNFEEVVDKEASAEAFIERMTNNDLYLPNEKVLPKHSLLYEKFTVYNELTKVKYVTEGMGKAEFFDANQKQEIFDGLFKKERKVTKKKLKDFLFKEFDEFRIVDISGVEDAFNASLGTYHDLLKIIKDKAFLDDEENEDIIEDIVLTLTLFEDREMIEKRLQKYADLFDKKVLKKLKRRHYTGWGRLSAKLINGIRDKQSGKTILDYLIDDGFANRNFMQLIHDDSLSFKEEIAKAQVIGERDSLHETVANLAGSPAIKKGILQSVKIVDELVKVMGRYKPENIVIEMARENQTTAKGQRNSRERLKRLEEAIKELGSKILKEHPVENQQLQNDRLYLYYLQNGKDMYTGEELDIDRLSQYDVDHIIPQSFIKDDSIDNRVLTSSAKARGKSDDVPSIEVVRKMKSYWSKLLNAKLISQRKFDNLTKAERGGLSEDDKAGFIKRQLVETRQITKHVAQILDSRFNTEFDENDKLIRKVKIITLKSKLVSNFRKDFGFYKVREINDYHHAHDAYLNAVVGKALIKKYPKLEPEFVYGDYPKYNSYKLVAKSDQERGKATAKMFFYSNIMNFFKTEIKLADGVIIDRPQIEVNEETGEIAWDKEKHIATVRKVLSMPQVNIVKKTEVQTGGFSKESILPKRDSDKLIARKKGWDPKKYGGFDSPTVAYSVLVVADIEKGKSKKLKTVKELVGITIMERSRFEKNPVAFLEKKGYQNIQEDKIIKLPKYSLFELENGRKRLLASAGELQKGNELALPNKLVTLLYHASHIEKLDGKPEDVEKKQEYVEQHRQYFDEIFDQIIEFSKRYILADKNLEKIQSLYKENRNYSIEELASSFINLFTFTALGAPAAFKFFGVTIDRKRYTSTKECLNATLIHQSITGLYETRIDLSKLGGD
Put plainly: cell_activity; +++; HEK293T; PAM not stated. The method in brief:
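Editing activity was scored as the fraction of GFP+ cells on day 4 by flow cytometry. BFP-expressing HEK293T cells (250,000) received by nucleofection 200 ng plasmid for the RT-Cas fusion protein and 200 ng template RNA plasmid designed to convert BFP to GFP.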

B1: BFP-to-GFP template RNA ; BFP reporter protospacer (ssRNA ; dsDNA)
RNA: GCCGAAGCACUGCACGCCGUGUUUUAGAGCUAGAAAUAGCAAGUUAAAAUAAGGCUAGUCCGUUAUCAACUUGAAAAAGUGGCACCGAGUCGGUGCACCCUGACGUACGGCGUGCAGUGCUU
DNA 1: GCCGAAGCACTGCACGCCGT
DNA 2: ACGGCGTGCAGTGCTTCGGC
For B1, the activity was ≥ 100 % of reference.

These data come from patent publication US20250092426, “CAS ENDONUCLEASES AND RELATED METHODS” (Flagship Pioneering Innovations VII, LLC, published 2025).
